Experimental data published in patent US7521432B2, “Compositions and methods for identifying agents which regulate chromosomal stability, gene activation and aging” (priority 2000, dated 2009).
Where “and” joins values, the source holds several entries; their conditions need not be identical. Equal values may be shown once.

How the values were obtained:
[1] = test system: Asterina miniata immature oocytes; assay: Microinjection into immature starfish oocytes, oocyte maturation (GVBD, polar body extrusion); assay type: cell-based; conditions: for maturation and fertilization of injected egg: 10 μM 1-MA
Procedure: (§1) Asterina miniata gametes were collected and microinjections were performed as described previously (Carroll et al., 1999). Briefly, quantitative microinjection of Asterina miniata oocytes was performed at 16° C., using mercury-filled micropipets (Hiramoto, 1962; Kiehart, 1982; and see the information available at http://egg/uchc.edu/injection), allowing injection of precisely calibrated picoliter volumes into the oocytes and blastomeres. Injection volumes were 3% of the total cellular volume (for oocytes, 93 pL and for blastomeres, 47 pL). Buffer alone, purified O-acetylated ADP ribose or recombinant protein was injected into immature oocytes or one blastomere of a two cell stage embryo to a final concentration in the cytoplasm as indicated in the figure legends and Tables. 1-methyl adenine was from Sigma and was used at 10 μM.
Micro-injection assays were performed in starfish and sea urchin ooctyes. Historically echinoderm development has been a biochemically tractable and well-defined system to assess biological function of pruteins, bio-active compounds and for detailed analyses of the cell cycle. This system is attractive for its amenability to quantitative microinjection assays, cell cycle analyses, biochemical fractionation and microscopic imaging of eggs and early embryos. Initially, we hypothesized that if O-acetyl-ADP ribose produced by SIR2 was involved in SIR2's gene silencing ability, then micro-injection of O-acetyl-ADP ribose into a maturing oocyte should give rise to a phenotypic effect on the developing animal, perhaps through perturbations in normal gene expression patterns. Immature oocytes were micro-injected with HPLC-purified O-acetyl-ADP ribose or with a buffer control. The oocytes were allowed to mature by the addition of 1-methyladenine and assessed for developmental alterations.
Asterina miniata immature oocytes were microinjected with the amounts of O-acetyl ADP ribose in PBS. The maturation hormone 1-methyladenine was added (10 μM) 25-30 minutes post-injection. Oocytes were monitored for GVBD and polar body extrusion. […] The number of oocytes per treatment is given. Combined results of 3 separate experiments (3 batches of O-acetyl ADP ribose).
Asterina miniata immature oocytes were microinjected with the given enzymes in PBS. The maturation hormone 1-methyladenine was added (10 μM) 25-30 minutes post-injection. Oocytes were monitored for GVBD and polar body extrusion. […] The number of oocytes per treatment (n) is given. Data are from four separate batches of oocytes. All oocytes for a given treatment responded in the same way unless indicated otherwise (e.g. see 200 nM HST2 injection).

[2] = test system: Asterina miniata blastomere of two cell stage embryo; assay: Microinjection into one blastomere of two-cell stage embryo, early embryonic cell division; assay type: cell-based
Procedure: as §1
To examine whether these SIR2 enzymes caused any phenotypic effects on early embryonic cell division, HST2 or the R45A mutant were micro-injected into one cell of the two-cell stage embryos. Asterina miniata oocytes were matured by addition of the hormone 1-methyladenine and then fertilized. One cell zygotes were then placed in injection chambers. After the first cell division, one daughter blastomere was microinjected with the indicated enzyme (see table and figure below). Embryos were monitored for further cell divisions over time. The non-injected daughter blastomere served as the internal control in each experiment. […] Again, there was a clear dosage effect that paralleled the effect observed on oocyte maturation.
Asterina miniata oocytes were matured by addition of the hormone 1-methyladenine and then fertilized. One cell zygotes were then placed in injection chambers. After the first cell division, one daughter blastomere was microinjected with the indicated enzyme. Embryos were monitored for further cell divisions over time. The non-injected daughter blastomere served as the internal control in each experiment. The number of injected embryos per treatment is given (n). Data are from two separate batches of oocytes.

acetyl-peptide = acetyl-peptide (Saccharomyces cerevisiae, UniProt P53686, R45A); assay: Catalytic efficiency of R45A mutant compared to wild type HST2; assay type: biochemical; conditions: unpublished data
From the text: To complement these studies, we micro-injected active yeast HST2 and human SIR2 enzymes instead of O-acetyl-ADP ribose. We hypothesized that if acetylated protein substrates were available in the oocyte, then micro-injected enzyme would provide a more constant source of O-acetyl-ADP ribose. As a control, a catalytically impaired mutant of HST2 (R45A) was employed to ensure that any effects were due to the catalytic activity of the enzyme. The R45A mutant is >50-fold lower in catalytic efficiency (kcat and kcat/Km for acetyl-peptide) compared to wild type enzyme (unpublished data).

[3] = final conc 200 nM in blastomere

Chain of acetyl-peptide (P53686 whole entry R45A): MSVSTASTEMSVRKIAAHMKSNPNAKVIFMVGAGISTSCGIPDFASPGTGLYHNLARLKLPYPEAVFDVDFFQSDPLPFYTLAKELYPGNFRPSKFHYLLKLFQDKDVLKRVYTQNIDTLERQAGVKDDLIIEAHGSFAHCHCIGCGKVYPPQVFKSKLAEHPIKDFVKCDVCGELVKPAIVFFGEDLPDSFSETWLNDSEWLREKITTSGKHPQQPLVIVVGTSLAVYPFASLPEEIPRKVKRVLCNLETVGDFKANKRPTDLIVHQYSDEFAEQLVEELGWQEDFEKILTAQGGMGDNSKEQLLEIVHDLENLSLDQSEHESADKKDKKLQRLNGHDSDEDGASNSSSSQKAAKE

B1: HST2: yeast SIR2 homolog, recombinant histidine tagged full length NAD-dependent deacetylase (protein, UniProt P53686 2-357, looked up)
NAD-dependent protein …: SVSTASTEMSVRKIAAHMKSNPNAKVIFMVGAGISTSCGIPDFRSPGTGLYHNLARLKLPYPEAVFDVDFFQSDPLPFYTLAKELYPGNFRPSKFHYLLKLFQDKDVLKRVYTQNIDTLERQAGVKDDLIIEAHGSFAHCHCIGCGKVYPPQVFKSKLAEHPIKDFVKCDVCGELVKPAIVFFGEDLPDSFSETWLNDSEWLREKITTSGKHPQQPLVIVVGTSLAVYPFASLPEEIPRKVKRVLCNLETVGDFKANKRPTDLIVHQYSDEFAEQLVEELGWQEDFEKILTAQGGMGDNSKEQLLEIVHDLENLSLDQSEHESADKKDKKLQRLNGHDSDEDGASNSSSSQKAAKE
maturation and fertilization of injected egg ([1]; 200 nM final, fertilized 4 hours later, FIG. 10A): failed to mature
injected eggs in chamber behaving the same way (failed to mature) ([1]; 200 nM final, FIG. 10A): 10 of 10
effect on oocyte maturation ([1]; above 72 nM): complete block in maturation
Effects/Notes (oocyte maturation) ([1]; final conc 25 nM): no effect was observed
Effects/Notes (oocyte maturation) ([1]; final conc 60 nM): 2 hr delay in GVBD and polar body extrusion
Effects/Notes (oocyte maturation) ([1]; final conc 72 nM): complete block
Effects/Notes (oocyte maturation) ([1]; final conc 200 nM): complete block in 9/10; 3 hr delay 1/10
development of injected cells ([2]; 25 nM, most cells): developed normally
division of injected blastomere ([2]; 200 nM, injected after complete cytokinesis, FIG. 10C): divided once, then both daughters stopped
effect on cell division of injected blastomere ([2]; at and above 72 nM): complete block in cell division either at the next or subsequent division
Effects: 3rd cell division ([2]; final conc 25 nM in blastomere): Normal
Effects: Next cell division ([2]; final conc 25 nM in blastomere): 4/5 normal and 1/5 as slight
Effects: other ([2]; final conc 25 nM in blastomere): Normal
Effects: 3rd cell division ([2]; final conc 72 nM in blastomere): Complete
Effects: Next cell division ([2]; final conc 72 nM in blastomere): 4/10 slight and 6/10 no
Effects: 3rd cell division [2, 3]: Complete
Effects: Next cell division [2, 3]: 2/7 slight and 5/7 no

B2: HST2 R45A: catalytically impaired mutant of HST2 (R45A) (protein, UniProt P53686 2-357, looked up, variant R45A)
NAD-dependent protein …: SVSTASTEMSVRKIAAHMKSNPNAKVIFMVGAGISTSCGIPDFASPGTGLYHNLARLKLPYPEAVFDVDFFQSDPLPFYTLAKELYPGNFRPSKFHYLLKLFQDKDVLKRVYTQNIDTLERQAGVKDDLIIEAHGSFAHCHCIGCGKVYPPQVFKSKLAEHPIKDFVKCDVCGELVKPAIVFFGEDLPDSFSETWLNDSEWLREKITTSGKHPQQPLVIVVGTSLAVYPFASLPEEIPRKVKRVLCNLETVGDFKANKRPTDLIVHQYSDEFAEQLVEELGWQEDFEKILTAQGGMGDNSKEQLLEIVHDLENLSLDQSEHESADKKDKKLQRLNGHDSDEDGASNSSSSQKAAKE
maturation and fertilization of injected egg ([1]; fertilized four hours later, FIG. 10B): matured and were fertilized normally
injected eggs in chamber behaving the same way (matured, fertilized normally) ([1]; FIG. 10B): 7 of 7
effect on oocyte maturation ([1]; any concentration from 25-200 nM): no observed effects
Effects/Notes (oocyte maturation) ([1]; final conc 25 nM): no observed effect
Effects/Notes (oocyte maturation) ([1]; final conc 60 nM): no observed effect
Effects/Notes (oocyte maturation) ([1]; final conc 72 nM): no observed effect
Effects/Notes (oocyte maturation) ([1]; final conc 200 nM): no observed effect
phenotype of injected blastomere ([2]; any concentration): no phenotype
Effects: 3rd cell division ([2]; final conc 25 nM in blastomere): Normal
Effects: Next cell division ([2]; final conc 25 nM in blastomere): Normal
Effects: other ([2]; final conc 25 nM in blastomere): Normal
Effects: 3rd cell division ([2]; final conc 72 nM in blastomere): Normal
Effects: Next cell division ([2]; final conc 72 nM in blastomere): Normal
Effects: other ([2]; final conc 72 nM in blastomere): Normal
Effects: 3rd cell division [2, 3]: Normal
Effects: Next cell division [2, 3]: normal
Effects: other [2, 3]: Normal
lower in catalytic efficiency (kcat and kcat/Km for acetyl-peptide) compared to wild type enzyme (acetyl-peptide): > 50 fold

B3: hSIRT2: human SIR2 enzyme (protein, UniProt Q8IXJ6 2-389, looked up)
NAD-dependent protein …: AEPDPSHPLETQAGKVQEAQDSDSDSEGGAAGGEADMDFLRNLFSQTLSLGSQKERLLDELTLEGVARYMQSERCRRVICLVGAGISTSAGIPDFRSPSTGLYDNLEKYHLPYPEAIFEISYFKKHPEPFFALAKELYPGQFKPTICHYFMRLLKDKGLLLRCYTQNIDTLERIAGLEQEDLVEAHGTFYTSHCVSASCRHEYPLSWMKEKIFSEVTPKCEDCQSLVKPDIVFFGESLPARFFSCMQSDFLKVDLLLVMGTSLQVQPFASLISKAPLSTPRLLINKEKAGQSDPFLGMIMGLGGGMDFDSKKAYRDVAWLGECDQGCLALAELLGWKKELEDLVRREHASIDAQSGAGVPNPSTSASPKKSPPPAKDEARTTEREKPQ
effect on oocyte maturation ([1]; above 72 nM): complete block in maturation
Effects/Notes (oocyte maturation) ([1]; final conc 25 nM): no effect was observed
Effects/Notes (oocyte maturation) ([1]; final conc 60 nM): 2 hr delay in GVBD and polar body extrusion and polar
Effects/Notes (oocyte maturation) ([1]; final conc 200 nM): complete block
